According to patent publication US20030166037:

T1: FasL1 FRET peptide (Aedans)EKELAELRESTS(Dabcyl)K-amide
T1 sequence: KELAELRESTS

T2: Peptide D7 (Aedans)ERNITEGEARGSVIL(Dabcyl)K-amide (not fully specified)
T2 chain: ERNITEGEARGSVIL

T3: FasL1 FRET peptide (Aedans)…(Dabcyl)K-amide
T3 chain: KELAELRESTS

T4: 29CD23 FRET peptide (Aedans)…(Dabcyl)K-amide
T4 chain: ADLSSFKSQEL


Assays:
[1] = tested on: T1, FasL1 FRET peptide (Aedans)EKELAELRESTS(Dabcyl)K-amide
[2] = biological target: T2, Peptide D7 …
[3] = biological target: T3, FasL1 FRET peptide …
[4] = biological target: T4, 29CD23 FRET peptide …; assay: FRET peptide cleavage kinetics, non-linear fit of rate against substrate concentration (the filing calls it analysis of affinities)
[5] = biological target: T3, FasL1 FRET peptide …; assay: as above
[6] = biological target: T4, 29CD23 FRET peptide …

Row | Molecule | FRET peptide cleavage in similar screening assays [1] | FRET peptide cleavage activity [2] | Relative proteolytic Activity [3] | other results
1 | MMP7 (Chemicon, Cat. #CC1059) | shown in similar screening assays to be a suitable substrate for the metalloproteases MMP7 and MMP 13 | – | – | –
2 | MMP 13 (Chemicon, Cat. #CC068) | shown in similar screening assays to be a suitable substrate for the metalloproteases MMP7 and MMP 13 | – | – | –
3 | truncated recombinant human Aggrecanase-1 (pro- and protease domains with C-terminal FLAG epitope) (protein) FASLSRFVETLVVADDKMAAFHGAGLKRYLLTVMAAAAKAFKHPSIRNPVSLVVTRLVILGSGEEGPQVGPSAAQTLRSFCAWQRGLNTPEDSDPDHFDTAILFTRQDLCGVSTCDTLGMADVGTVCDPARSCAIVEDDGLQSAFTAAHELGHVFNMLHDNSKPCISLNGPLSTSRHVMAPVMAHVDPEEPWSPCSARFITDFLDNGYGHCLLDKPEAPLHLPVTGDYKDDDDKG | – | Neither Aggrecanase-1 nor Aggrecanase-2 showed any activity on this peptide | * | –
4 | truncated recombinant human Aggrecanase-2 (pro- and protease domains with C-terminal FLAG epitope) (protein) SISRARQVELLLVADASMARLYGRGLQHYLLTLASIANRLYSHASIENHIRLAVVKVVVLGDKDKSLEVSKNAATTLKNFCKWQHQHNQLGDDHEEHYDAAILFTREDLCGHHSCDTLGMADVGTICSPERSCAVIEDDGLHAAFTVAHEIGHLLGLSHDDSKFCEETFGSTEDKRLMSSILTSIDASKPWSKCTSATITEFLDDGHGNCLLDLPRKQILGGDYKDDDDKG | – | Neither Aggrecanase-1 nor Aggrecanase-2 showed any activity on this peptide | ***** | Km [4]: 40 µM; Km [5]: 80 µM; Relative proteolytic Activity [6]: *****; Vm [6]: 0.6 rfu/min; Vm [3]: 2.8 rfu/min
